Results as given in patent publication US20240327519A1 (Genentech, published 2024).

What was measured:
[1] = biological target: T1, LAG3 (lymphocyte activation gene-3), as parameterised in the receptor occupancy model (UniProt P18627 23-450, limits assumed); test: assay not stated; parameter of the mPBPK tumor receptor occupancy model; input parameter of the PK/receptor occupancy model; assay not stated
T1 construct: also called CD223
T1 sequence (looked up): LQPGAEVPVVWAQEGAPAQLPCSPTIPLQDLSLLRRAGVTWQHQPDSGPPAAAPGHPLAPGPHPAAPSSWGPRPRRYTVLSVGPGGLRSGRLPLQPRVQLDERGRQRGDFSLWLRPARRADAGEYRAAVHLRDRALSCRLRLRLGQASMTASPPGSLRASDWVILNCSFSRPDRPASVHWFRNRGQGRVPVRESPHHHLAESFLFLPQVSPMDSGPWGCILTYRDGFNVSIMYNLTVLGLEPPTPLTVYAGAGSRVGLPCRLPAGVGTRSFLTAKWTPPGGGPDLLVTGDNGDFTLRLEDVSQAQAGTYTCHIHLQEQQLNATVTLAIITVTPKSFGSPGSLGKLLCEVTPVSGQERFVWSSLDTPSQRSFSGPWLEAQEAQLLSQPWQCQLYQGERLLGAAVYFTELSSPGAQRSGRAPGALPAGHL

[2] = biological target: PD-1 (programmed cell death protein 1), as parameterised in the receptor occupancy model (UniProt Q15116 25-167, limits assumed); test: assay not stated; parameter of the mPBPK tumor receptor occupancy model
Chain of PD-1 (programmed cell death protein 1), as parameterised in the receptor occupancy model (Q15116 25-167 limits assumed): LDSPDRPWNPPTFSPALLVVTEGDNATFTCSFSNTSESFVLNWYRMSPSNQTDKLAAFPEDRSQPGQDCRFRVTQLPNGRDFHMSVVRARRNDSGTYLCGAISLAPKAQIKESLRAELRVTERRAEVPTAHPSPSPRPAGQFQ

B1: RO7247669 (PD1-LAG3), anti-PD-1/LAG3 bispecific antibody (bispecific antibody, human IgG1, kappa, L234A L235A)
heavy 1: not shown
light 1: EVQLLESGGGLVQPGGSLRLSCAASGFSFSSYTMSWVRQAPGKGLEWVATISGGGRDIYYPDSVKGRFTISRDNSKNTLYLQMNSLRAEDTAVYYCVLLTGRVYFALDSWGQGTLVTVSSASVAAPSVFIFPPSDEQLKSGTASVVCLLNNFYPREAKVQWKVDNALQSGNSQESVTEQDSKDSTYSLSSTLTLSKADYEKHKVYACEVTHQGLSSPVTKSFNRGEC
heavy 2: EVQLLESGGGLVQPGGSLRLSCAASGFIFDDYTMNWVRQAPGKGLEWVAVISWDGGGTYYTDSVKGRFTISRDDFKNTLYLQMNSLRAEDTAVYYCAKGLTDTTLYGSDYWGQGTLVTVSSASTKGPSVFPLAPSSKSTSGGTAALGCLVEDYFPEPVTVSWNSGALTSGVHTFPAVLQSSGLYSLSSVVTVPSSSLGTQTYICNVNHKPSNTKVDEKVEPKSCDKTHTCPPCPAPEAAGGPSVFLFPPKPKDTLMISRTPEVTCVVVDVSHEDPEVKFNWYVDGVEVHNAKTKPREEQYNSTYRVVSVLTVLHQDWLNGKEYKCKVSNKALGAPIEKTISKAKGQPREPQVCTLPPSRDELTKNQVSLSCAVKGFYPSDIAVEWESNGQPENNYKTTPPVLDSDGSFFLVSKLTVDKSRWQQGNVFSCSVMHEALHNHYTQKSLSLSPGK
light 2: not shown
notes: also called PD-1 BsAb; bsAb RO7247669
B1 was tested, and the Kd [1] was 780 pM and the Kd [2] was 250 pM.
